The values below come from the Immune Epitope Database (IEDB).

In one experiment the target is HLA-A*01:01. Put plainly: IEDB peptide-MHC binding, purified MHC/direct/fluorescence; filed as Kd, often an IC50 or EC50 that approximates it; ≥ and ≤ were set here for values at or beyond the usual limits of such assays. To be noted: source organism: Pseudomonas aeruginosa.
A further experiment deals with HLA-A*02:01. Described as above.
The target of a further experiment is HLA-A*03:01. Described as above.
The next experiment has as its target HLA-A*11:01. The description is as above. To be noted: source organism: Pseudomonas aeruginosa.
Experiment [1] addresses HLA-A*26:01. The experiment is described as above.
For the next experiment, the target named is HLA-A*31:01. The description is as above. To be noted: source organism: Pseudomonas aeruginosa.
In experiment [2] the target is HLA-A*69:01. Described as above.
In the next experiment the target is HLA-B*07:02. The description is as above.
Another experiment deals with HLA-B*08:01. The experiment is described as above. To be noted: source organism: Pseudomonas aeruginosa.
Another experiment concerns the target HLA-B*15:01. The experiment is described as above.
For experiment [3], the target named is HLA-B*27:05. The experiment is described as above. To be noted: source organism: Pseudomonas aeruginosa.
The next experiment addresses HLA-B*40:01. The description is as above.
A further experiment concerns the target HLA-B*58:01. The experiment is described as above. To be noted: source organism: Pseudomonas aeruginosa.
A further experiment deals with HLA-B*15:02. The experiment is described as follows: IEDB peptide-MHC binding, purified MHC/competitive/fluorescence; filed as Kd, often an IC50 or EC50 that approximates it; ≥ and ≤ were set here for values at or beyond the usual limits of such assays.
Another experiment has as its target HLA-A*02:03. The experiment is described as follows: IEDB peptide-MHC binding, purified MHC/direct/fluorescence; filed as Kd, often an IC50 or EC50 that approximates it; ≥ and ≤ were set here for values at or beyond the usual limits of such assays.
The next experiment addresses HLA-A*02:11. The experiment is described as above.
The target of a further experiment is HLA-A*02:12. The experiment is described as above.
The target in the next experiment is HLA-A*02:16. The experiment is described as above.
The target in a further experiment is HLA-A*02:19. The experiment is described as above.
A further experiment addresses HLA-A*24:03. The experiment is described as above.
The target of the next experiment is HLA-A*29:02. Described as above. To be noted: source organism: Rickettsia sibirica 246.
Another experiment concerns the target HLA-A*68:02. The experiment is described as above.
The target in a further experiment is HLA-B*15:17. The experiment is described as above. To be noted: source organism: Rickettsia sibirica 246.
Another experiment concerns the target HLA-B*18:01. The description is as above.
A further experiment has as its target HLA-B*27:03. Described as above.
A further experiment addresses HLA-B*35:01. Described as above.
The target of the next experiment is HLA-B*39:01. The description is as above.
Experiment [4] concerns the target HLA-B*46:01. The description is as above.
The target in experiment [5] is HLA-B*51:01. Described as above.
In experiment [6] the target is HLA-B*57:01. The experiment is described as above.
The next experiment deals with HLA-C*14:02. The experiment is described as above. To be noted: source organism: Yersinia pestis CO92.
Experiment [7] addresses HLA-A*26:01. The experiment is described as follows: IEDB peptide-MHC binding, purified MHC/competitive/fluorescence; filed as Kd, often an IC50 or EC50 that approximates it; ≥ and ≤ were set here for values at or beyond the usual limits of such assays. To be noted: source organism: Zaire ebolavirus.
The target of experiment [8] is HLA-A*69:01. The experiment is described as above. To be noted: source organism: Zaire ebolavirus.
Experiment [9] deals with HLA-B*27:05. Described as above. To be noted: source organism: Zaire ebolavirus.
The target in experiment [10] is HLA-B*51:01. The description is as above. To be noted: source organism: Zaire ebolavirus.
For experiment [11], the target named is HLA-B*57:01. The experiment is described as above. To be noted: source organism: Zaire ebolavirus.
The next experiment deals with HLA-C*12:03. The experiment is described as follows: IEDB peptide-MHC binding, purified MHC/direct/fluorescence; filed as Kd, often an IC50 or EC50 that approximates it; ≥ and ≤ were set here for values at or beyond the usual limits of such assays. To be noted: source organism: Squirrelpox virus.
The target of experiment [12] is HLA-B*46:01. Put plainly: IEDB peptide-MHC binding, purified MHC/competitive/fluorescence; filed as Kd, often an IC50 or EC50 that approximates it; ≥ and ≤ were set here for values at or beyond the usual limits of such assays. To be noted: source organism: Shigella sonnei Ss046.
Setting [13] is: source organism: Pseudomonas aeruginosa.
Setting [14] is: source organism: Rickettsia sibirica 246.
Setting [15] is: source organism: Zaire ebolavirus.
The mark [16] stands for this setting: source organism: Giardia lamblia ATCC 50803.
Where [17] appears, read: source organism: Squirrelpox virus.
[18] abbreviates: source organism: Escherichia coli O157:H7 str. EC4486.

Where only a bound is given, the exact number is not on record here.

Take ALEPGFKDY: the Kd with HLA-A*01:01 was 2 µM; with HLA-A*02:01 (setting [13]), not below 20 µM; with HLA-A*03:01 (setting [13]) it was not below 20 µM; in the experiment with HLA-A*11:01 it was not below 20 µM; with HLA-A*26:01 [1] (setting [13]) it was not below 20 µM; with HLA-A*31:01, not below 20 µM. Besides, the Kd with HLA-A*69:01 [2] (setting [13]) was not below 20 µM; in the experiment with HLA-B*07:02 (setting [13]) it was not below 20 µM; with HLA-B*08:01 it was not below 20 µM; with HLA-B*15:01 (setting [13]) it was 0.482 µM; in the experiment with HLA-B*27:05 [3], not below 20 µM; with HLA-B*40:01 (setting [13]), not below 20 µM. Further, the dissociation constant (Kd) was not below 20 µM in the experiment with HLA-B*58:01 and 0.814 µM in the experiment with HLA-B*15:02 (source organism: Pseudomonas aeruginosa PACS2).
With EFVSANLAM, the Kd with HLA-A*02:01 (setting [14]), in the experiment with HLA-A*02:03 (setting [14]), with HLA-A*02:11 (setting [14]), with HLA-A*02:12 (setting [14]), with HLA-A*02:16 (setting [14]) and with HLA-A*02:19 (setting [14]) was not below 20 µM in each case. The Kd with HLA-A*03:01 (setting [14]), with HLA-A*24:03 (setting [14]), with HLA-A*26:01 [1] (setting [14]), with HLA-A*29:02, in the experiment with HLA-A*68:02 (setting [14]) and with HLA-A*69:01 [2] (setting [14]) was not below 20 µM each time. Also, the Kd with HLA-B*07:02 (setting [14]) is not below 20 µM; with HLA-B*15:01 (setting [14]), not below 20 µM; in the experiment with HLA-B*15:17, not below 20 µM; with HLA-B*18:01 (setting [14]), not below 20 µM; in the experiment with HLA-B*27:03 (setting [14]), not below 20 µM; with HLA-B*35:01 (setting [14]), 0.052 µM. Besides, the equilibrium dissociation constant (Kd) with HLA-B*39:01 (setting [14]), in the experiment with HLA-B*46:01 [4] (setting [14]), with HLA-B*51:01 [5] (setting [14]) and with HLA-B*57:01 [6] (setting [14]) was not below 20 µM each time.
Sequence ELNASFIVF had a Kd with HLA-B*15:02 (source organism: Rickettsia massiliae MTU5) of 0.182 µM.
For the sequence KIMQVDRPM, the Kd was found to be 0.102 µM in the experiment with HLA-C*14:02 and 4 µM with HLA-B*15:02 (source organism: Yersinia pestis CO92).
With KQIPIWLPL, the Kd with HLA-A*02:19 (setting [15]) is not below 20 µM; with HLA-A*03:01 (setting [15]), not below 20 µM; in the experiment with HLA-A*68:02 (setting [15]) it was not below 20 µM; in the experiment with HLA-B*40:01 (source organism: Ebola virus - Gabon (1994-1997)), 0.0009 µM; with HLA-A*26:01 [7], not below 20 µM; in the experiment with HLA-A*69:01 [8], not below 20 µM. Moreover, the Kd in the experiment with HLA-B*27:05 [9] is 0.316 µM; in the experiment with HLA-B*51:01 [10] it was not below 20 µM; in the experiment with HLA-B*57:01 [11], not below 20 µM.
In the case of LTIVFVPEV, the Kd in the experiment with HLA-A*02:01 (setting [16]) is 0.004 µM; in the experiment with HLA-A*03:01 (setting [16]), not below 20 µM; with HLA-A*26:01 [1] (setting [16]) it was not below 20 µM; with HLA-B*15:01 (setting [16]) it was not below 20 µM; with HLA-B*18:01 (setting [16]), not below 20 µM; in the experiment with HLA-B*27:03 (setting [16]), not below 20 µM. Moreover, the Kd with HLA-B*39:01 (setting [16]) and with HLA-B*46:01 [4] (setting [16]) was not below 20 µM in each case.
For the sequence MACHRVLTY, the Kd in the experiment with HLA-A*02:01 (setting [17]), with HLA-A*02:03 (setting [17]), with HLA-A*02:11 (setting [17]), with HLA-A*02:12 (setting [17]), in the experiment with HLA-A*02:16 (setting [17]) and in the experiment with HLA-A*02:19 (setting [17]) was not below 20 µM in each case. Further, the Kd was not below 20 µM in the experiment with HLA-A*24:03 (setting [17]); not below 20 µM with HLA-A*26:01 [1] (setting [17]); not below 20 µM with HLA-A*68:02 (setting [17]); not below 20 µM with HLA-A*69:01 [2] (setting [17]); not below 20 µM with HLA-B*07:02 (setting [17]); 0.104 µM in the experiment with HLA-B*15:01 (setting [17]). Besides, the Kd is not below 20 µM with HLA-B*18:01 (setting [17]); not below 20 µM with HLA-B*27:03 (setting [17]); 0.021 µM with HLA-B*35:01 (setting [17]); not below 20 µM with HLA-B*39:01 (setting [17]); not below 20 µM with HLA-B*46:01 [4] (setting [17]); not below 20 µM in the experiment with HLA-B*51:01 [5] (setting [17]). Moreover, the Kd with HLA-C*12:03 was 0.018 µM.
In the experiment with HLA-B*15:02 (source organism: Brucella canis ATCC 23365), SALGFTGVY yielded a Kd of 0.385 µM.
As for YAMMSLFDM, the Kd in the experiment with HLA-A*02:03 (setting [18]) is not below 20 µM; with HLA-A*03:01 (setting [18]) it was not below 20 µM; with HLA-A*26:01 [1] (setting [18]), not below 20 µM; in the experiment with HLA-B*07:02 (setting [18]), 18.4 µM; in the experiment with HLA-B*18:01 (setting [18]), not below 20 µM; in the experiment with HLA-B*27:03 (setting [18]), not below 20 µM. The Kd was 0.004 µM in the experiment with HLA-B*35:01 (setting [18]), not below 20 µM with HLA-B*51:01 [5] (setting [18]), not below 20 µM in the experiment with HLA-B*57:01 [6] (setting [18]) and 0.113 µM with HLA-B*46:01 [12].

For orientation: Kd means the equilibrium constant for the complex coming apart. A high value points to weaker binding.
